Consider 1 molecule from patent publication US7947648 (AEROVANCE, dated 2011).

For assay [1], the target named is T1, IL-4 receptor alpha chain (UniProt P24394 26-232, limits assumed).
T1 sequence (looked up): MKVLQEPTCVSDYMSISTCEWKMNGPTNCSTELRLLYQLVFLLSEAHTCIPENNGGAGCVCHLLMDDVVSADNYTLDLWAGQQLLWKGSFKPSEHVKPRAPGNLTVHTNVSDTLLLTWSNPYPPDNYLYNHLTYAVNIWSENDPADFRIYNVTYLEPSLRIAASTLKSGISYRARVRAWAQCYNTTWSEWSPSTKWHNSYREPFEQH
Kind of assay: cell-based or functional assay.

Assay [2] concerns the target T1, IL-4 receptor alpha chain. Kind of assay: Biacore (SPR), IL-4 receptor α chain immobilized. (SPR reads the build-up and loss of mass on a sensor chip optically.)
Assay [3] has as its target T1, IL-4 receptor alpha chain. Put plainly: Biacore (SPR), IL-4 receptor α chain immobilized; n = 7.
In assay [4] the target is T1, IL-4 receptor alpha chain. Kind of assay: Biacore assay, pre- and post-nebulized IL-4RA samples (Aeroneb Pro); no difference between them.

B1: IL-4RA (mutant human IL-4 protein with the R121D/Y124D pair of substitutions) (ligand)
chain: MHKCDITLQEIIKTLNSLTEQKTLCTELTVTDIFAASKNTTEKETFCRAATVLRQFYSHHEKDTRCLGATAQQFHRHKQLIRFLKRLDRNLWGLAGLNSCPVKEANQSTLENFLERLKTIMDEKDSKCSS
notes: The entry may carry an N-terminal methionine; also called mhIL-4; IL-4 mutein
For orientation: koff means the first-order rate constant of dissociation. A lower koff goes with slow dissociation. A word on the kon: it is the rate constant with which the complex forms. A low value points to slower complex formation. The Kd is a measure of binding affinity in units of concentration. A low value points to higher affinity. B1: in assay [1], the “EC50, inhibition of IL-4-induced cell proliferation (TF-1/IL-4 proliferation assay), pre and post nebulization (Aeroneb Pro)” value was in the range of 0.2 to 0.3 nM; the “IC50, TF-1 proliferation assay, post nebulization (Pari LC Plus)” value came to 0.483 nM; the “IC50, TF-1 proliferation assay, pre nebulization (Pari LC Plus)” value was determined as 0.459 nM. Besides, in assay [2], the koff came to 0.0017 s⁻¹ and the kon turned out to be 1.6e+07 M⁻¹ s⁻¹. In assay [3], this molecule yielded a Kd of 0.14 nM. Also, in assay [4], the equilibrium dissociation constant (Kd) was ~0.1 nM.
